Data as given in patent US20260209294A1, “USE OF RECOMBINANT PROTEIN IN PREPARING DRUG FOR INHIBITING ANEURYSM” (HUAZHONG UNIVERSITY OF SCIENCE AND TECHNOLOGY, priority 2022, published 2026).

Tests used:
[1] = test system: TAC-induced mouse aneurysm model; assay: TAC (transverse aortic constriction)-induced aneurysm model, i.p. recombinant AGGF1 or AGGF1-RDDdel protein; assay type: in vivo, C57BL/6 mice
Text: RCAs are harvested after 21 days for the histological staining. […] The bar graphs at the bottom show the intima thickness (1st graph), the adventitia thickness (2nd graph), the total arterial wall thickness (3rd graph), a media cell density (4th graph), and the adventitia cell density (5th graph). […] The bar graphs on the right show the percentage of the collagen area and the percentage of the α-SMA positive area. * P<0.05; **, P<0.01; ***, P<0.001; a mouse sample size n=6/group.
RCAs are harvested after 21 days for the histological staining and the western blot analysis. […] Bar graphs below show the percentage of the MCP1-positive cell area and the CD68-positive cell area. […] The β-actin serves as a loading control. […] The β-actin serves as a loading control. *, P<0.05; **, P<0.01; *** P<0.001; a mouse sample size n=6/group, other sample sizes n=4/group.
The bar graph on the right illustrates the luminal diameter of the ascending aorta. An ascending aortic tissue is harvested after 21 days for the histological staining. […] The bar graphs below display the intimal thickness (1st graph), the adventitia thickness (2nd graph), the total arterial wall thickness (3rd graph), the medial cell density (4th graph), and the adventitia cell density (5th graph). *, P<0.05; **, P<0.01; ***, P<0.001; a mouse sample size n=6/group.
The ascending aortic tissue is harvested for the histological staining 21 days after the surgery. […] Below are quantitative bar graphs showing the quantitation of the percentage of the positive area for each corresponding stain. *, P<0.05; **, P<0.01; *** P<0.001; a mouse sample size n≥6/group.
FIG. 7 depicts that the intraperitoneal injection of the purified human AGGF1 protein, dependent on the RDD sequence, attenuates a TAC-induced ascending aortic TGF-β1 maturation and a signaling pathway, as well as the ERK1/2 signaling pathway. The RCAs are harvested after 21 days for the western blot analysis. […] The β-actin serves as a loading control. […] The β-actin serves as a loading control. *, P<0.05; **, P<0.01; ***, P<0.001; sample size n=4/group.
The research team obtained blood vessel samples from the thoracic aorta of 8 normal individuals and 8 patients with the thoracic aortic aneurysm from the hospital. […] Subsequently, the research divided C57BL/6 mice into 6 groups: after sham surgery, they were divided into a buffer group, an AGGF1 group, and an AGGF1-RDD^del group (Sham+buffer, Sham+AGGF1, Sham+AGGF1-RDD^del), and after the TAC surgery, they were divided into a buffer group, an AGGF1 group, and an AGGF1-RDD^del group (TAC+buffer, TAC+AGGF1, TAC+AGGF1-RDD^del), with each group having mice ≥6. Buffer was protein elution solution. 21 days after the TAC surgery, Doppler ultrasound was used to detect vascular luminal diameter, and carotid artery and aorta were collected for histological staining and Western blot to evaluate the effect of AGGF1. Starting from the second day after the surgery, recombinant AGGF1 protein or AGGF1-RDD^del protein was administered through intraperitoneal injection in the mice, with the same dose of EB as control, once every 2 days for 3 weeks. The protein dosage was 0.5 mg/kg.

[2] = test system: mature TGFβ1 in HEK293T cells; assay: ELISA of TGF-β1 levels in culture medium of HEK293T cells transfected with LAP-TGF-β1-FLAG and integrin α7-FLAG; assay type: cell-based; details: purified protein 24 hours
Description: The β-actin serves as a loading control. […] The GAPDH serves as a loading control. […] The mRNA is extracted using the Trizol method and reverse transcribed to obtain cDNA. […] Cells are transfected with different plasmids of LAP-TGF-β1-FLAG and the integrin α7-FLAG, and treated with the purified AGGF1 or AGGF1-RDDdel for 24 hours, with grouping as shown in FIG. K. *, P<0.05; **, P<0.01; ***, P<0.001; n≥3/group.
In vitro experiments were performed using aortic smooth muscle cells and HEK293T cells. As shown in A-C of FIG. 8 and A-F of FIG. 9, whether with recombinant AGGF1 protein, AGGF1-FLAG overexpression, or AGGF1 silencing, Western blot analysis and ELISA experimental results verified that AGGF1 inhibits the TGFβ1 signaling pathway (Smad3 and ERK1/2) and the level of the mature TGFβ1. […] In the Western blot analysis of FIG. 10, it was verified that LAP-TGFβ1 interacts with integrin α7 through the RGD sequence, which is also the molecular mechanism by which integrin α7 inhibits TGFβ1.

[3] = after TAC vs buffer, 0.5 mg/kg i.p. once every 2 days for 3 weeks, day 21
[4] = after TAC, 0.5 mg/kg i.p., day 21
[5] = regardless of sham or TAC surgery, 0.5 mg/kg i.p.

B1: AGGF1 protein: recombinant human AGGF1 protein with His tag, SEQ ID NO:1, expressed from pet28-AGGF1 in Escherichia coli BL21 (DE3) (protein, listed as Homo sapiens)
chain: MASEAPSPPRSPPPPTSPEPELAQLRRKVEKLERELRSCKRQVREIEKLLHHTERLYQNAESNNQELRTQVEELSKILQRGRNEDNKKSDVEVQTENHAPWSISDYFYQTYYNDVSLPNKVTELSDQQDQAIETSILNSKDHLQVENDAYPGTDRTENVKYRQVDHFASNSQEPASALATEDTSLEGSSLAESLRAAAEAAVSQTGFSYDENTGLYFDHSTGFYYDSENQLYYDPSTGIYYYCDVESGRYQFHSRVDLQPYPTSSTKQSKDKKLKKKRKDPDSSATNEEKDLNSEDQKAFSVEHTSCNEEENFANMKKKAKIGIHHKNSPPKVTVPTSGNTIESPLHENISNSTSFKDEKIMETDSEPEEGEITDSQTEDSYDEAITSEGNVTAEDSEDEDEDKIWPPCIRVIVIRSPVLQIGSLFIITAVNPATIGREKDMEHTLRIPEVGVSKFHAEIYFDHDLQSYVLVDQGSQNGTIVNGKQILQPKTKCDPYVLEHGDEVKIGETVLSFHIHPGSDTCDGCEPGQVRAHLRLDKKDESFVGPTLSKEEKELERRKELKKIRVKYGLQNTEYEDEKTLKNPKYKDRAGKRREQVGSEGTFQRDDAPASVHSEITDSNKGRKMLEKMGWKKGEGLGKDGGGMKTPIQLQLRRTHAGLGTGKPSSFEDVHLLQNKNKKNWDKARERFTENFPETKPQKDDPGTMPWVKGTLE
modifications: His tag
ascending aortic expansion (FIG. 5) ([1]; TAC, 0.5 mg/kg i.p., day 21): significantly inhibit
vascular thickening (H&E staining, ascending aorta, FIG. 5) ([1]; TAC, 0.5 mg/kg i.p., day 21): significantly inhibit
vascular expansion (right carotid artery, FIG. 3) [1, 3]: significantly inhibit
vascular remodeling (right carotid artery, FIG. 3) [1, 3]: significantly inhibit
vascular inflammation (MCP-1, CD68; right carotid artery, FIG. 4) ([1]; after TAC vs buffer, 0.5 mg/kg i.p., day 21): significantly inhibit
inflammation of the ascending aorta (FIG. 6) [1, 4]: inhibited
remodeling of the ascending aorta (FIG. 6) [1, 4]: inhibited
level of the mature TGFβ1 (Western blot, RCA, FIG. 4) [1, 5]: inhibit
p-ERK1/2 (Western blot, RCA, FIG. 4) [1, 5]: inhibit
p-Smad3 (Western blot, RCA, FIG. 4) [1, 5]: inhibit
effect on the carotid artery and aorta ([1]; sham group, 0.5 mg/kg i.p. once every 2 days for 3 weeks): little effect
inhibition of mature TGFβ1 by integrin α7 [2]: enhance
